The values that follow come from paper PMC3664923, “Structures of CD200/CD200 Receptor Family and Implications for Topology, Regulation, and Evolution” (Structure(London, England:1993), 2013).

Several values for one entry are separate records, joined by “and”; a condition that tells them apart may be missing. Equal entries are not always repeated. Where two headings read alike, the source gives them in different places.

As a reminder, the Kd is the concentration at which binding is half-saturated.

Experiment [1] has as its target CD200R (Mus musculus) (UniProt Q9ES57). The note with it: cited from earlier work.
Experiment [2] deals with mouse CD200 (residues 1-232) CD4-Bio, mutant Q27K (mouse) (UniProt O54901). Description: SPR; BIAcore 3000, 25°C, HBS; wild-type and mutant CD200 CD4-Bio and CD4 control (about 650 RU each) held by OX68 mAb amine coupled to a CM5 chip; serial dilutions of soluble CD200R injected (KD from equilibrium binding), mutants tested with CD200R at 0.5 μM and given as percent of wild type. For orientation: In SPR one partner is held on a chip, and binding of the other changes the refractive index at the surface.

In experiment [3] the target is mouse CD200 extracellular region (residues 1-232) tagged with rat CD4 domains 3 and 4 and a biotinylation site, wild type (mouse) (UniProt O54901). The experiment is described as above.
Experiment [4] deals with CD200R (Mus musculus) (UniProt Q9ES57). The note with it: cited from earlier work. This is another data set of the same source.
Experiment [5] addresses T1, mouse CD200RLa (residues 1-237) CD4-Bio, triple mutant N63K, K66T, and L114F (mouse).
T1 chain: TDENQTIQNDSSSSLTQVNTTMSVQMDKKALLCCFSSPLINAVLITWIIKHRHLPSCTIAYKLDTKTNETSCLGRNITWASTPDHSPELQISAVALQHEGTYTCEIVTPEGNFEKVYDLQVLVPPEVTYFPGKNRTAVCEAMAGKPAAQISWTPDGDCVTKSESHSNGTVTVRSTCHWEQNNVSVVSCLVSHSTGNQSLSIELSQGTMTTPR
Description: SPR.

Experiment [6] has as its target T2, mouse CD200RLa (residues 1-237) CD4-Bio chimeric protein, wild type (mouse).
T2 chain: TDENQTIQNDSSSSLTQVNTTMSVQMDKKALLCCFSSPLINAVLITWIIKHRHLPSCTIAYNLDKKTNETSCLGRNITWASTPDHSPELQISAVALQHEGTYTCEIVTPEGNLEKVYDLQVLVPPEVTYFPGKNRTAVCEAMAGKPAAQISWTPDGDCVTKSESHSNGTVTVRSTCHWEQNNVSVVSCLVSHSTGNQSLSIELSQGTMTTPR
The experiment can be described thus: SPR.

For experiment [7], the target named is T3, mouse CD200R (residues 1-232) CD4-Bio chimeric protein (mouse, UniProt Q9ES57 26-232).
T3 chain: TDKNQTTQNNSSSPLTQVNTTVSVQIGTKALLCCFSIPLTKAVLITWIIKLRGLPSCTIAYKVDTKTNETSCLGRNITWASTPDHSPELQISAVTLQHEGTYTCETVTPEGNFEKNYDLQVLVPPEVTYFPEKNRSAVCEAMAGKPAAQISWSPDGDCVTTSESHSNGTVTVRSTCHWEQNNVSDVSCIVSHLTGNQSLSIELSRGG
The experiment can be described thus: SPR.

Experiment [8] addresses mouse CD200RLa (residues 1-237) CD4-Bio, double mutant N63K K66T (mouse). Description: SPR; BIAcore 3000, 25°C; CD200R and wild-type and mutant CD200RLa CD4-Bio held by OX68 on a CM5 chip; increasing concentrations of CD200 injected; KDs by nonlinear curve fitting.
For experiment [9], the target named is mouse CD200RLa (residues 1-237) CD4-Bio, mutant L114F (mouse, UniProt Q6XJV4 26-237, L114F). Described as above. The note with it: one partner purified.

On to CD200 (from UniProt P41217), for which, in the experiment with CD200R (Mus musculus) [1], the Kd was 7 µM.
In [2], “mouse CD200R extracellular region with C-terminal polyhistidine tag (receptor)” returned a percent of wild-type binding response of 150%. The molecule also returned a Kd in experiment [3] of 0.5 µM.
Take CD200 (from UniProt O54901): the Kd with CD200R (Mus musculus) [4] was 4 µM.

B1: mouse CD200 extracellular region with C-terminal polyhistidine tag (ligand, UniProt O54901 31-232, looked up)
chain: QVEVVTQDERKALHTTASLRCSLKTSQEPLIVTWQKKKAVSPENMVTYSKTHGVVIQPAYKDRINVTELGLWNSSITFWNTTLEDEGCYMCLFNTFGSQKVSGTACLTLYVQPIVHLHYNYFEDHLNITCSATARPAPAISWKGTGTGIENSTESHFHSNGTTSVTSILRVKDPKTQVGKEVICQVLYLGNVIDYKQSLDKG
modifications: N-linked sugars cut back to N-acetyl-glucosamine by Endoglycosidase Hf (crystallised form); NH2 terminus presumably cyclized glutamine (pyroglutamic acid)
notes: signal peptide in the construct; mouse CD200, extracellular region (two Ig-like domains), residues 1-232 of NP_034948; the range counts on the precursor; Protein in the flow-through of the concanavalin A column was crystallised; protein eluted from the column was used as the soluble ligand in SPR; also called soluble CD200; recombinant CD200
Turning to B1, the Kd in experiment [5] is 1.1 µM and 0.9 µM; in experiment [6] it was over 40 µM; in [7], 0.6 µM; in experiment [8], 18.4 µM; in [9] it was 4.2 µM.
